Assay results as given in patent US20180222985A1, “ANTIBODIES AGAINST HUMAN CSF-1R FOR USE IN INDUCING LYMPHOCYTOSIS IN LYMPHOMAS OR LEUKEMIAS” (Hoffmann-La Roche Inc., priority 2015, published 2018).

Legend:
MEC1 cells = assay: CLL xeno-transplantation system: MEC1 cells i.v. in Rag2−/−γc−/− mice; format: in vivo
Description: FIG. 4 Anti-leukemic effect of anti-CSF1R moAb in the CLL xeno-transplantation system. • (A-B-C-D-E) i.v. MEC1 challenged (day 0) Rag2^−/−γc^−/− mice were treated i.v. (day +11, +25) with 30 mg/Kg of anti-CSF1R moAb (n=3, white circles) or left untreated (n=4, black circles) and killed at day 27 (A). The mean value of the absolute number of CD11b+ F4/80+ cells gated on CD45+ in SP (B) and BM (C) is shown in graphs. The mean value of the absolute number of human CD19+ cells in the BM is shown in graph (D). The mean value of the absolute number of human CD19+ cells and of Ann-PI+ cells gated on hCD19+ cells in SP is shown in graphs (E). Data are from one representative experiment of three. Statistical analysis: *p<0.05, **p<0.01, Student's t test. (F-G-H-I) i.v. MEC1 challenged (day 0) Rag2^−/−γc^−/− mice were treated i.v. (day +11, +25) with 30 mg/Kg of anti-CSF1R moAb) (n=7, white circles) or left untreated (n=7, black circles) and killed at days 27 and 29, 48 h and 96 h after the last moAb injection (F). The mean value of the absolute number of human CD19+ cells and of Ann-PI+ cells gated on hCD19+ cells in SP at days 27, 29 is shown in graphs (G). […]
FIG. 5 Anti-leukemic effect and survival impact of anti-CSF1R moAb in the CLL xeno-transplantation system. • (A-B-C) i.v. MEC1 challenged (day 0) Rag2^−/−γc^−/− mice were treated i.v. (day +11, +25) with 30 mg/Kg of anti-CSF1R moAb (n=3, white circles) or left untreated (n=4, black circles) and killed at day 27 (A). […] Statistically significant differences were calculated using the Student t test. **p<0.01, ***p<0.001. (D-E) i.v. MEC1 challenged (day 0) Rag2^−/−γc^−/− mice were left untreated (n=10, black circles) or treated with: 30 mg/Kg i.v. of anti-CSF1R moAb (n=11, white circles; day +11, +25); or 30 mg/Kg i.p. of anti-CD20 moAb GA101 (n=10, blue circles; day +11, +25); or 30 mg/Kg i.p. of anti-CD20 moAb GA101 (day +11, +25)+30 mg/Kg i.v. of anti-CSF1R moAb (day +18, +32) (n=10, violet circles) and monitored for survival (D). […]

PBMCs from CLL patients = assay: In vitro cultures and cell-depletion assays from CLL samples (PBMCs); format: cell-based, human; conditions: etanercept 10 μg/ml, 24 h; 3 out of 4 samples
Description: Statistically significant differences were calculated using the Student t test. *p<0.05 • (C) hCD19+ CDS+ depletion after 24 h treatment (n=3) with 100 μM, 500 μM, 1000 μM of clodrolip, with (black bar) or without (white bar) etanercept (10 n/ml) was calculated by the following formula: 100−% remaining cells, where % remaining cells=(Absolute number in treated samples/Absolute number in untreated samples)×100. (*p<0.05), Student's t test. • (D) hCD19+ CDS+ depletion after 24 h treatment (n=3) with clodrolip 1000 μM, with (black bar) or without (white bar) blocking anti-TRAIL-R2 moAb (1 μg/ml) was calculated by the following formula: 100−% remaining cells, where % remaining cells=(Absolute number in treated samples/Absolute number in untreated samples)×100.
Fresh PBMCs from untreated CLL patients were seeded, as triplicates, at 3×10^6 cells/ml in culture medium and treated with clodrolip or PBS liposomes (100, 500, 1000 μM) for 30 min and 24 h, in presence or absence of etanercept (10 μg/ml), a TNF-α antagonist from Pfizer or anti-TRAIL-R2 (human, 1 μg/ml) moAb (HS201) from Adipogen AG. […] The specific percentage of remaining leukemic CD19+CD5+ or CD14+ cells in treated samples was calculated as (absolute number in treated samples/absolute number in control samples)×100. […]

[1] = biological target: human wildtype CSF-1R (wt CSF-1R) (human, UniProt P07333 20-972); assay: cell-based or functional assay
[2] = biological target: human mutant CSF-1R L301S Y969F (human) (UniProt P07333); assay: cell-based or functional assay

Substance: GA101: glycoengineered humanized B-Ly1 antibody BHH6-B-KV1 GE, type II anti-human CD20
- survival of mice, p vs untreated control (Log-Rank test) (MEC1 cells; 30 mg/Kg each, single agents days +11, +25, combination GA101 days +11, +25 + anti-CSF1R days +18, +32): 0.006

Substance: etanercept
- effect on leukemic cell depletion induced by clodrolip (TNF blocked) (PBMCs from CLL patients): reduced
- effect on anti-leukemic effect of CSF1R moAb in the SP (MEC1 cells; etanercept 10 mg/Kg i.p. from day +10, CSF1R moAb 30 mg/Kg i.v. days +11, +25, day 29): abrogated
- effect on clodrolip-induced leukemic cell depletion in the BM (MEC1 cells; etanercept 10 mg/Kg i.p. from day +10, clodrolip 60 μl i.v. days +11, +25, day 26): abated

Substance: goat polyclonal anti-CSF-1R antibody ab10676 (abcam)
- wtCSF-1R IC30 (30 percent inhibition of cell viability, CellTiterGlo, 3D spheroid culture) [1]: 14.2 µg/mL
- Mutant CSF-1R IC30 (30 percent inhibition of cell viability, CellTiterGlo, 3D spheroid culture) [2]: > 20 µg/mL
- Mutant CSF-1R: inhibition of cell viability at 20 µg/ml [2]: 0%

Substance: Anti CSF-1R SC 2-4A5 (Santa Cruz Biotechnology, US) (antibody)
- wtCSF-1R IC30 (30 percent inhibition of cell viability, CellTiterGlo, 3D spheroid culture) [1]: 16.6 µg/mL
- Mutant CSF-1R IC30 (30 percent inhibition of cell viability, CellTiterGlo, 3D spheroid culture) [2]: 2.56 µg/mL
